Measurements reported in PMC5555194, “Disease-linked mutations in factor H reveal pivotal role of cofactor activity in self-surface–selective regulation of complement activation” (The Journal of Biological Chemistry, 2017).
Residue numbers refer to the chain shown, from its start. Names and notes keep the numbering of the source. Values joined by “and” are separate entries in the source; they are usually repeats but may differ in a detail not shown here. Identical values can stand only once.

B1: I62-CFH (recombinant human complement factor H, variant Ile-62, Tyr-402, Asp-936) (natural protein, UniProt P08603 19-1231, looked up)
chain: EDCNELPPRRNTEILTGSWSDQTYPEGTQAIYKCRPGYRSLGNIIMVCRKGEWVALNPLRKCQKRPCGHPGDTPFGTFTLTGGNVFEYGVKAVYTCNEGYQLLGEINYRECDTDGWTNDIPICEVVKCLPVTAPENGKIVSSAMEPDREYHFGQAVRFVCNSGYKIEGDEEMHCSDDGFWSKEKPKCVEISCKSPDVINGSPISQKIIYKENERFQYKCNMGYEYSERGDAVCTESGWRPLPSCEEKSCDNPYIPNGDYSPLRIKHRTGDEITYQCRNGFYPATRGNTAKCTSTGWIPAPRCTLKPCDYPDIKHGGLYHENMRRPYFPVAVGKYYSYYCDEHFETPSGSYWDHIHCTQDGWSPAVPCLRKCYFPYLENGYNQNYGRKFVQGKSIDVACHPGYALPKAQTTVTCMENGWSPTPRCIRVKTCSKSSIDIENGFISESQYTYALKEKAKYQCKLGYVTADGETSGSITCGKDGWSAQPTCIKSCDIPVFMNARTKNDFTWFKLNDTLDYECHDGYESNTGSTTGSIVCGYNGWSDLPICYERECELPKIDVHLVPDRKKDQYKVGEVLKFSCKPGFTIVGPNSVQCYHFGLSPDLPICKEQVQSCGPPPELLNGNVKEKTKEEYGHSEVVEYYCNPRFLMKGPNKIQCVDGEWTTLPVCIVEESTCGDIPELEHGWAQLSSPPYYYGDSVEFNCSESFTMIGHRSITCIHGVWTQLPQCVAIDKLKKCKSSNLIILEEHLKNKKEFDHNSNIRYRCRGKEGWIHTVCINGRWDPEVNCSMAQIQLCPPPPQIPNSHNMTTTLNYRDGEKVSVLCQENYLIQEGEEITCKDGRWQSIPLCVEKIPCSQPPQIEHGTINSSRSSQESYAHGTKLSYTCEGGFRISEENETTCYMGKWSSPPQCEGLPCKSPPDISHGVVAHMSDSYQYGEEVTYKCFEGFGIDGPAIAKCLGEKWSHPPSCIKTDCLSLPSFENAIPMGEKKDVYKAGEQVTYTCATYYKMDGASNVTCINSRWTGRPTCRDTSCVNPPTVQNAYIVSRQMSKYPSGERVRYQCRSPYEMFGDEEVMCLNGNWTEPPQCKDSTGKCGPPPPIDNGDITSFPLSVYAPASSVEYQCQNLYQLEGNKRITCRNGQWSEPPKCLHPCVISREIMENYNIALRWTAKQKLYSRTGESVEFVCKRGYRLSSRSHTLRTTCWDGKLEYPTCAKR
modifications: N-glycans trimmed to the first GlcNAc residues (EndoHf)
notes: complement factor H (CFH), human, CCPs 1-20, allotypic variant Ile-62, Tyr-402, Asp-936; Expressed from the vector pPICZaB and secreted; also called I62,D936-CFH; IYD-CFH; source: P. pastoris KM71H, secreted, enzymatically deglycosylated, chromatographically purified
B2: R53H-CFH (on Ile-62 background) (natural protein, human, UniProt P08603 19-1231, looked up)
chain: B1 chain with R35H
modifications: N-glycans trimmed to the first GlcNAc residues (EndoHf)
notes: complement factor H (CFH), human, CCPs 1-20, aHUS-linked mutation R53H on the background Ile-62, Tyr-402, Asp-936; Expressed from the vector pPICZaB and secreted; the native signal peptide is probably absent; also called R53-CFH; source: P. pastoris KM71H, secreted, enzymatically deglycosylated, chromatographically purified
B3: V62-CFH (recombinant human complement factor H, variant Val-62, Tyr-402, Glu-936) (natural protein, UniProt P08603 19-1231, looked up)
chain: B1 chain with I44V, D918E
modifications: N-glycans trimmed to the first GlcNAc residues (EndoHf)
notes: complement factor H (CFH), human, CCPs 1-20, allotypic variant Val-62, Tyr-402, Glu-936; Expressed from the vector pPICZaB and secreted; also called V62,E936-CFH; recombinant CFH; source: P. pastoris KM71H, secreted, enzymatically deglycosylated, chromatographically purified
B4: S1191L/V1197A-CFH (LA-CFH, on Ile-62 background) (natural protein, human, UniProt P08603 19-1231, looked up)
chain: B1 chain with S1173L, V1179A
modifications: N-glycans trimmed to the first GlcNAc residues (EndoHf)
notes: complement factor H (CFH), human, CCPs 1-20, aHUS-linked double mutation S1191L/V1197A on the background Ile-62, Tyr-402, Asp-936; Expressed from the vector pPICZaB and secreted; the native signal peptide is probably absent; source: P. pastoris KM71H, secreted, enzymatically deglycosylated, chromatographically purified

Key:
C3b [1] = target: T1, C3b (human, UniProt P01024 23-667; P01024 749-1663); assay: SPR; C3b amine-coupled to a Biacore C1 chip; dilution series of CFH (from 2.5 to 0.019 uM), preincubated with or without a 2-fold molar excess of PspCN, flowed over; Biacore T200, 25 °C, 10 mM HEPES, 150 mM NaCl, 0.05% P20; 1:1 steady-state model; three experiments on different chips; conditions: both partners purified
T1 construct: Amine-coupled to the sensor chip; source: bought: Complement Technology (plasma-derived, human)
T1 sequence (P01024 23-667, chain 1 of 2): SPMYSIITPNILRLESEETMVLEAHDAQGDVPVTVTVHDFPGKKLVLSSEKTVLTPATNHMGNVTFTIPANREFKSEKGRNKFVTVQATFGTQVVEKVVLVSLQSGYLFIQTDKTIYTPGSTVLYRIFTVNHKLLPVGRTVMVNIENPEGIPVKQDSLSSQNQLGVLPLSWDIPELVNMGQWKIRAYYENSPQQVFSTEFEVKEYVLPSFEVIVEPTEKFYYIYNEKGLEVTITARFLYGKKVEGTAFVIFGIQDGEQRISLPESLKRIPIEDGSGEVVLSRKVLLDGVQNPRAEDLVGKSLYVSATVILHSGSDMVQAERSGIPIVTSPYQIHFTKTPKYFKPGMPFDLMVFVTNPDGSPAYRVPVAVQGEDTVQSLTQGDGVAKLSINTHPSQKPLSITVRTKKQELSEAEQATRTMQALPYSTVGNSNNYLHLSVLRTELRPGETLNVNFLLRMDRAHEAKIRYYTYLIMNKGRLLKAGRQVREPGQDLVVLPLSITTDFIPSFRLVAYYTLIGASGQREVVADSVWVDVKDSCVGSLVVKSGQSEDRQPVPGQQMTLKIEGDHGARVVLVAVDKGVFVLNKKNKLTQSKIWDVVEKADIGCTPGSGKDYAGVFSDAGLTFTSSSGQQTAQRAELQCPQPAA
T1 sequence (P01024 749-1663, chain 2 of 2): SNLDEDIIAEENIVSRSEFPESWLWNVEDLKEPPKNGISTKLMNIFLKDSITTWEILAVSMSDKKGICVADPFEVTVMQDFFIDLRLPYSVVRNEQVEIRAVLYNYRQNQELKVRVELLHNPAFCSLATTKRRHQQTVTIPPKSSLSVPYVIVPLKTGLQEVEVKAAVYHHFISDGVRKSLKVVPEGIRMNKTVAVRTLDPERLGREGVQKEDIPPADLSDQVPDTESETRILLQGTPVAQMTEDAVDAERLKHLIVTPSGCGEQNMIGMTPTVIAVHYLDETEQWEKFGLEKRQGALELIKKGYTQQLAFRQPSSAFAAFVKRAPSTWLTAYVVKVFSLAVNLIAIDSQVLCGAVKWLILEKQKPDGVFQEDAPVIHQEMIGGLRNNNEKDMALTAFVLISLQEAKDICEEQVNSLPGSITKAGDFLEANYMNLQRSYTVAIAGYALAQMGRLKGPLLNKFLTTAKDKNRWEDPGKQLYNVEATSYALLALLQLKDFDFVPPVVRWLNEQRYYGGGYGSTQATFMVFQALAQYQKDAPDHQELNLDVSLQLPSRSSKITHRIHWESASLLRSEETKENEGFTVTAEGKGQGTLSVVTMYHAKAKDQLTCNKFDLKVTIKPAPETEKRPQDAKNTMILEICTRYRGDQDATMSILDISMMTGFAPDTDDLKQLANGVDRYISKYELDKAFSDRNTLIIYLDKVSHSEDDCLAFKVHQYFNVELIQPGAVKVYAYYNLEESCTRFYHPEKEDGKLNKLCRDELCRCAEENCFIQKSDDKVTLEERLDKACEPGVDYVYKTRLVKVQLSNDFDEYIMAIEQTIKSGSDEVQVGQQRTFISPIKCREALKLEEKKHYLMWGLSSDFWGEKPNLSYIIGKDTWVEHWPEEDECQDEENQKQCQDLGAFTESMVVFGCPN

C3b [2] = target: T1, C3b; assay: as above; conditions: both partners purified; remark: listed apart in the source

Row | Binder | Kd (C3b [1]) | Kd (C3b [2])
1 | B1 | 1000 to 1300 nM | 
2 | B2 | 1000 nM | 1200 nM and 1800 nM
3 | B3 |  | 270 nM
4 | B4 |  | 830 nM and 860 nM
